The record followed here is article PMC7419741 (QRB Discovery, 2020).

The target of the assay is T1, IL8.
T1 construct: interleukin 8 (CXCL8), ligand of CXCR2
The assay is described as follows: MST; 5 nM NT647-labelled receptor-Fc against a gradient of ligand; 1x PBS, 10 mM DTT, arginine at different concentrations; Monolith NT.115 pico, 25°C; data from the early T-Jump period; Kd model (law of mass action). The conditions noted are these: both partners purified.

B1: CXCR2^QTY–Fc (Fc fusion)
chain: MEDFNMESDSFEDFWKGEDLSNYSYSSTLPPFLLDAAPCEPESLEINKYYTTTTYAQTYQQSQQGNSQTMQTTQYSRVGRSVTDTYQQNQAQADQQYAQTQPTWAASKVNGWIFGTFLCKTTSQQKETNYYSGTQQQACTSTDRYLAIVHATRTLTQKRYLVKYTCQSTWGQSQQQAQPTQQYRRTVYSSNVSPACYEDMGNNTANWRMQQRTQPQSYGYTTPQQTMQYCYGFTLRTLFKAHMGQKHRAMRTTYATTQTYQQCWQPYNQTQQADTLMRTQVIQETCERRNHIDRAQDATETQGTQHSCQNPQTYAFIGQKFRHGLLKILAIHGLISKDSLPKDSRPSFVGSSSGHTSTTL
modifications: NT647 fluorescent dye (Monolith NT protein labelling kit RED-NHS)
A word on the Kd: it is the equilibrium constant for the complex coming apart. Low values mean higher affinity, high ones lower affinity. The molecule B1 registered a Kd of 60.3 ± 21 nM.
